# Reference: patent US20160200813A1
# Changes are numbered by the printed parent chain.
# B1: anti-LRP-8 BGK-2C8.8C antibody (antibody, V domains shown)
# VH: EVQLVESGGGLVQPGRSLKLSCAASGFTVSDYYMAWVRQAPKKGLEWVASISYEGSSTYYGDSVKGRFTISRDNAKSILYLQMNSLRSEDTATYYCARPLRYYGYNYRFAYWGQGTLVTVSS
# VL: DIQMSQSPPVLSASVGDRVTLSCKASQNIHKNLDWYQQKHGEAPKLLIYYTDNLQTGIPSRFSGSGSGTDYTLTISSLQPEDVATYYCYQYNSGPTFGAGTKLELQ
# B2: chimeric anti-LRP-8 ML199.11H1.5B2 antibody [mu/hu IgG1/k] LALA (antibody, V domains shown)
# VH: EVQLVESGGDLVKPGGSLKLSCAASRFTFSNYGMSWVRQTPDKRLEWVATISSGGRYTYYPDSVKGRFTISRDNAKNTLYLQMSSLRSEDTAMYYCARDYLYAMDYWGQGTSVTVSS
# VL: DVVMTQTPLSLPVSLGDQASISCRSSQSLVYSNGNTYLHWYLQKPGQSPKVLMYKVSNRFSGVSDRFSGSGSGTDFTLKISRVEAEDLGVYFCSQSTHVPLTFGAGTKLELK
# B3: LRP8-ML199.11H1.5B2 VH1/VL1A.15 (antibody, V domains shown)
# VH: EVQLVESGGGLVKPGGSLRLSCAASRFTFSNYGMSWVRQAPGKGLEWVSTISSGGRYTYYPDHVKGRFTISRDNAKNSLYLQMNSLRAEDTAVYYCARDYLYAMDYWGQGTTVTVSS
# VL: DVVMTQSPLSLPVTPGEPASISCRSSQSLVYSNENTYLHWYLQKPGQSPQVLMYKVSNRFSGVPDRFSGSGSGTDFTLKISRVEAEDVGVYFCSQSTHVPLTFGQGTKLEIK
# B4: LRP8-ML199.11H1.5B2 VH1/VL1A.18 (antibody, V domains shown)
# VH: B3 VH
# VL: B3 VL with E34K
# B5: LRP8-ML199.11H1.5B2 VH1/VL1A.21 (antibody, V domains shown)
# VH: B3 VH
# VL: B3 VL with N33P, E34G
# B6: LRP8-ML199.11H1.5B2 VH1/VL1A.19 (antibody, V domains shown)
# VH: B3 VH
# VL: B3 VL with N33R, E34G
# B7: LRP8-ML199.11H1.5B2 VH1/VL1A.20 (antibody, V domains shown)
# VH: B3 VH
# VL: B3 VL with N33W, E34G
# B8: LRP8-ML199.11H1.5B2 VH1/VL1A.16 (antibody, V domains shown)
# VH: B3 VH
# VL: B3 VL with N33T, E34G
# B9: LRP8-ML199.11H1.5B2 VH1/VL1A.17 (antibody, V domains shown)
# VH: B3 VH
# VL: B3 VL with E34L
# B10: BGK-7F7 (GENOVAC candidate clone of Table 17) (antibody, V domains shown)
# VH: QVTLKESGPGILQPSQTLSLTCTFSGFSLSTYGLGVGWIRQPSGKGLEWLANIWWDDAKYYNPSLKNRLTISKDTSNNQAFLKIPNVDTADTARYYCARTTKPYYFDYWGQGVMVTVSS
# VL: HFVLAQPNSVSTNLGSTVKLSCKRSTANIGSNYVNWYQQHEGRSPTTLIYRDDRRPDGVPDRFSGSIDRSSNSALLTINNVQTEDEADYFCQSYSSGINIFGGGTKLTVL
# Tests used:
# [1] = biological target: Mouse LRP-8 expressed on HEK293 cells (mouse) (UniProt Q924X6); test: fit of the FACS titration of FIG. 12A on mLRP8-transfected HEK293 cells; the column head prints EC50 only, nM is from legend paragraph 78 and the axis of FIG. 12A
# [2] = biological target: Mouse LRP-8 expressed on HEK293 cells (mouse) (UniProt Q924X6); test: cell-based binding assay, mLRP8
# [3] = biological target: Mouse LRP-8 expressed on HEK293 cells (mouse) (UniProt Q924X6); test: cell-based MSD-ECL binding on cells overexpressing mouse LRP-8 variant 1 (mLRP8 assay); curve without plateau up to 10000 ng/ml
# [4] = biological target: Mouse LRP-8 expressed on HEK293 cells (mouse) (UniProt Q924X6); test: mLRP8 cell binding; chimeric VL / chimeric VH
# [5] = biological target: Mouse LRP-8 expressed on HEK293 cells (mouse) (UniProt Q924X6); test: FACS, mouse LRP8 cells
# [6] = biological target: Mouse LRP-8 expressed on HEK293 cells (mouse) (UniProt Q924X6); test: cell-based MSD binding assay on 293H-mLRP8 cells; curve label 11H1-15
# [7] = biological target: Mouse LRP-8 expressed on HEK293 cells (mouse) (UniProt Q924X6); test: cell-based MSD binding assay on 293H-mLRP8 cells; curve label 11H1-18
# [8] = biological target: Mouse LRP-8 expressed on HEK293 cells (mouse) (UniProt Q924X6); test: cell-based MSD binding assay on 293H-mLRP8 cells; curve label 11H1-21, no plateau up to about 600 nM
# [9] = biological target: Mouse LRP-8 expressed on HEK293 cells (mouse) (UniProt Q924X6); test: cell-based MSD binding assay on 293H-mLRP8 cells; curve label 11H1-19
# [10] = biological target: Mouse LRP-8 expressed on HEK293 cells (mouse) (UniProt Q924X6); test: cell-based MSD binding assay on 293H-mLRP8 cells; curve label 11H1-20
# [11] = biological target: Mouse LRP-8 expressed on HEK293 cells (mouse) (UniProt Q924X6); test: cell-based MSD binding assay on 293H-mLRP8 cells; curve label 11H1-16, no plateau up to about 600 nM
# [12] = biological target: Mouse LRP-8 expressed on HEK293 cells (mouse) (UniProt Q924X6); test: cell-based MSD binding assay on 293H-mLRP8 cells; curve label 11H1-17
# [13] = biological target: Mouse LRP-8 expressed on HEK293 cells (mouse) (UniProt Q924X6); test: cell-based binding on MOUSE LRP8-HEK293, supernatant 1:125
# [14] = biological target: Mouse LRP-8 expressed on HEK293 cells (mouse) (UniProt Q924X6); test: cell-based binding on MOUSE LRP8-HEK293, supernatant 1:25
# [15] = biological target: Mouse LRP-8 expressed on HEK293 cells (mouse) (UniProt Q924X6); test: cell-based MSD, 1 to 5, mouse-LRP8-HEK293
# [16] = biological target: Mouse LRP-8 expressed on HEK293 cells (mouse) (UniProt Q924X6); test: cell-based MSD, 1 to 25, mouse-LRP8-HEK293
# [17] = biological target: Mouse LRP-8 expressed on HEK293 cells (mouse) (UniProt Q924X6); test: cell-based MSD, 1 to 125, mouse-LRP8-HEK293
# [18] = biological target: Mouse LRP-8 expressed on HEK293 cells (mouse) (UniProt Q924X6); test: cell-based binding on MOUSE LRP8-HEK293, supernatant 1:5
binder,measurement,setting,value
B1,EC50,[1],2.61 nM
same,EC50,[2],22 nM
same,EC50,[3],4.4 µg/mL
B2,EC50,[2],0.32 nM
same,EC50,[4],0.95 nM
same,FACS (ratio +/-),[5],283
B3,EC50,[6],3.2 nM
B4,EC50,[7],0.8 nM
B5,EC50,[8],249 nM
B6,EC50,[9],24 nM
B7,EC50,[10],21 nM
B8,EC50,[11],625 nM
B9,EC50,[12],0.7 nM
B10,fold over isotype control,[13],13.1 fold
same,fold over isotype control,[14],21.6 fold
same,fold over IgG control,[15],3.5 fold
same,fold over IgG control,[16],6 fold
same,fold over IgG control,[17],5.3 fold
same,fold over isotype control,[18],27.4 fold
